Measurements taken from patent US20060246095A1, “Multiepitope polypeptides for cancer immunotherapy” (HADASIT MEDICAL RESEARCH SERVICES & DEVELOPMENT LTD., priority 2003, published 2006).

Key:
[1] = LTB-MEP fusion protein functional assay (GM1 ganglioside ELISA, anti-MEP detection); assay type: binding; details: GM1 ganglioside coated plates, chicken anti-MEP antibodies
Description: LTB-MEP fusion protein expressed by the recombinant pQE30-LTB-MEP construct was tested for its ability to bind GM1 ganglioside and anti-MEP antibodies. LTB-MEP fusion protein was incubated in ELISA plates coated with GM1 ganglioside (which binds to native LTB) with chicken anti-MEP antibodies.
Only LTB-MEP molecules with functional LTB and MEP units can be detected by this assay. Boiled LTB-MEP protein losses its capability to bind to GM1 ganglioside and therefore could not be detected.
A BamHI-HindIII fragment encoding for MEP (SEQ ID NO: 1) was attached to a KpnI-HindIII fragment encoding for LTB (SEQ ID NO: 52) through a polynucleotide linker. The ligated product was cloned into pQE30 vector and transformed into E. Coli (JM109 strain). LTB-MEP fusion protein expressed in bacteria, was purified and further characterized by ELISA assay. Ganglioside GM1 coated plates were incubated at 37° C. in the presence of native or boiled LTB-MEP fusion protein, purified LTB and pQE30 DNA expression vector (without insert) molecules. […] LTB molecule is sensitive to temperature and heat treatment destroys its capability to bind to GM1 ganglioside. Since binding detection was performed using chicken anti-MEP antibodies only active LTB-MEP fusion protein could be detected.

[2] = tested on: DC; test: DC maturation in vitro (preliminary data); assay type: cell-based
From the text: A non-toxic form of LT (NLT) was produced by the present inventors. […] Thus, NLT and LTB could be developed as a delivery system for the presentation of tumor antigens to the immune system.

B1: Purified LTB (protein)
chain: APQTITELCSEYRNTQIYTINDKILSYTESMAGKREMVIITFKSGETFQVEVPGSQHIDSQKKAIERMKDTLRITYLTETKIDKLCVWNNKTPNSIAAISMKN
OD 450 nm ([1]; treatment 37° C.): 1.05
OD 450 nm ([1]; treatment Boiled): 0.98
DC maturation [2]: induce DC maturation in vitro
